According to US20070172470A1, “Phosphatase regulation of nucleic acid transcription” (The Regents of the University of California, priority 2003, published 2007):
Each block holds one molecule with its values, some of them ahead of it.

How the values were obtained:
RNAP IIO = biological target: T1, RNAP IIO (Bos taurus, UniProt G3MZY8); assay: CTD phosphatase assay with RNAP IIO as substrate; format: biochemical, calf
T1 construct: Calf thymus RNAP IIA was purified; from tissue; host or cells: calf thymus
Experimental: (§1) FIGS. 2C and 2D show a CTD phosphatase assay of FCP1 and SCP1 on GST-CTDo and RNAP IIO prepared by MAPK2/ERK2. Increasing amounts of FCP1 or GST-SCP1 214 were assayed in the presence of 75 fmol GST-CTDo (lanes 1-6), 75 fmol RNAP IIO (lanes 7-12), or 75 fmol GST-CTDo and 75. fmol RNAP IIO (lanes 13-18). Both GST-CTDo and RNAP IIO substrates were prepared by the in vitro phosphorylation of CKII-labeled GST-CTDa or RNAP IIA by MAPK2/ERK2. All reactions were carried out in the presence of 7 pmol RAP74. CTD dephosphorylation of both GST-CTDo and RNAP IIO is shown by the increase in mobility of GST-CTDo to GST-CTDa and subunit IIo to IIa, respectively. The difference in the intensity of radiolabeled GST-CTDoand that of radiolabeled subunit IIo is not a reflection of a difference in the amount of substrates present, but of the higher efficiency with which CKII incorporates radiolabeled phosphates onto the most C-terminal serine of GST-CTDa compared to subunit. IIa.
Increasing amounts of GST-SCP1 214 were assayed in the presence of 3.7 fmol RNAP IIO prepared by CTDK1/CTDK2, TFIIH, P-TEFb, MAPK2/ERK2 and Cdc2 kinase. All reactions were carried out in-the presence of 7 pmol. RAP74. CTD dephosphorylation of RNAP IIO isozymes. by qSTSCP1 214 is shown by an increase in mobility of subunit IIo to that of IIa. The results are summarized in the graph showing the percent of RNAP IIO remaining as a function of increasing SCP1 concentrations.
Preparation and Purification of ^32P-RNAP IIO Isozymess and ^32P-GST-CTDo: Calf thymus RNAP IIA was purified by the method of Hodo and Blatti (30) with modifications as described by Kang and Dahmus (31). Specific isozymes of ^32p-labeled RNAP IIO were prepared by phosphorylation at the most C-terminal serine (CKII site) in the largest subunit of purified RNAP IIA with recombinant CKII and […], followed by CTD phosphorylation in the presence of 2 mM ATP with either purified CTDK1/CTDK2, TFIIH, P-TEFb, recombinant MAPK2/ERK2 or recombinant Cdc2 kinase. The RNAP IIO isozymes were individually purified over a DE53 column with a step elution of 500 mM KCl (28). Because only the most C-terminal serine is labeled with ^32p and lies outside. the consensus repeat, dephosphorylation by CTD phosphatase results in an electrophoretic mobility shift in SDS-PAGE of subunit IIo to the position of subunit IIa without the loss of label. Similarly, ^32P-labeled GST-CTDo was prepared from GST-CTDa by CKII followed by MAPK2/ERK2. GST-CTDo was purified over a glutathione-agarose column with a step elution of 15 mM glutathione.
CTD phosphatase assays utilizing RNAP IIO and GST-CTDo as substrate were performed as described previously (32) with minor modifications. Reactions were performed in 20 μl of CTD phosphatase buffer (50 mM Tris-HCl, pH 7.9, 10 mM MgCl2, 20% glycerol, 0.025% Tween 80, 0.1 mM EDTA, 5 mM DTT) in the presence of 20 mM KCl. Each reaction contained specified amounts of GST-CTDo and/or RNAP IIO and was carried out in the presence of 7 pmol RAP74. Reactions were initiated by the addition of FCP1 or SCP1 and incubated at 30° C. for 30 minutes. Assays were terminated by the addition of 5× Laemmli buffer, and RNAP II subunits and GST-CTD were resolved on a 5% SDS-PAGE gel. The gel images were developed by autoradiography and scanned by Molecular Dynamics Image Scanner Storm 860 in the phosphor screen mode. Data were quantitatively analyzed by ImageQuant software.

GST-CTDo = biological target: T2, GST-CTDo (Homo sapiens, UniProt P24928); assay: CTD phosphatase assay with GST-CTDo (rCTDo) as substrate; format: biochemical
T2 construct: made in house
T2 sequence (P24928 1593-1960 A1835T, one chain of several): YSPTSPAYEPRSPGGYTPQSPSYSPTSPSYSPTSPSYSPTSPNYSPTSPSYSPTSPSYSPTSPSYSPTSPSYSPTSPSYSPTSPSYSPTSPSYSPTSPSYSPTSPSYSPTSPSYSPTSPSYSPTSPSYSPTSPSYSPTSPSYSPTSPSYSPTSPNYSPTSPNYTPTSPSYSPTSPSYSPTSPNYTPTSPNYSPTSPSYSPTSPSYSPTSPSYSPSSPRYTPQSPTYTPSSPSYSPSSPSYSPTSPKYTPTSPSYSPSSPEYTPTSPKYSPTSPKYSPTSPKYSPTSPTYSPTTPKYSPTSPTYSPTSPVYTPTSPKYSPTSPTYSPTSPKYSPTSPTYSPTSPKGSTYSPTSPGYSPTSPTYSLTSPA
Experimental: as §1
Preparation and Purification of ^32P-RNAP IIO Isozymess and ^32P-GST-CTDo: Calf thymus RNAP IIA was purified by the method of Hodo and Blatti (30) with modifications as described by Kang and Dahmus (31). […]
CTD phosphatase assays utilizing RNAP IIO and GST-CTDo as substrate were performed as described previously (32) with minor modifications. […] Data were quantitatively analyzed by ImageQuant software.

[1] = test system: 28 aa CTD heptad repeat peptide with Ser 5 phosphate or Ser 2 phosphate; assay: CTD phosphopeptide phosphatase assay (malachite green); format: biochemical; details: 25 μM phosphopeptide, 60 mins at 37° C.
Experimental: The indicated amounts of. SCP1 were incubated with the phosphopeptide substrate and phosphate released was measured as described infra.
N-terminal biotinylated CTD phosphopeptides, comprised of 4 tandem repeats YSPTSPS and containing phosphoserine at position 2 or position 5, were synthesized (Alpha Diagnostics, San Antonio, Tex.). Phosphatase reaction mixtures (50 μl) containing 50 mM Tris-acetate, pH 5.5, 10 mM MgCl2, 0.5 mM DTT, 10% glycerol, 25 μM of phosphopeptide and wild type or mutant SCP1 were incubated for 60 mins at 37° C. The reactions were quenched by adding 0.5 ml of malachite green (Biomol). Phosphate release was measured at A620 and quantified relative to a phosphate standard curve.

[2] = test system: P19 mouse embryonic stem cells; assay: Neuronal differentiation of P19 cells; format: cell-based; details: clonal P19 line, retinoic acid, selective medium
Experimental: P19 cells, C, differentiated GFP expressing P19 cells; D, differentiated SCP1-expressing P19 cells; F, differentiated REST/NRSF-expressing P19 cells. Numbers of NLC per field are shown. *p=0.001 compared to WT 19 cells; **p=0.008 compared to WT P19 cell using student's t-test.
P19 stably expressing REST/NRSF.
These cell lines were maintained in α-MEM/10%FBS with […] G418. To induce neuronal differentiation, P19 cells were allowed to aggregate in bacterial grade petri-dishes (Fisher) at a seeding density of 1×10^5cells/ml in the presence of 1×10^−6M all-trans retinoic acid. After 3 days of aggregation, cells were dissociated into single cells by 0.05% trypsin-0.53 mM EDTA (Gibco). Trypsin was removed by centrifugation and the cells were plated in 6 cm tissue culture dishes (Nunc). at a density of 1×10^5 cells/cm^2 in Neurobasal medium/N2 supplement (Invitrogen) in the presence or absence of 1 μg/ml fibronectin (Invitrogen). The cells were cultured for 5 days after which average cell numbers/field were determined. Cells were either lysed to prepare total RNA (Rneasy kit, Qiagen) or stained with TuJ1 antibody (Babco).
For immunostaining, cells were fixed for 10 mins with 4% paraformaldehyde. TuJ1 antibody was used at 1:2000 and secondary antibody used was FITC-conjuagated anti-mouse (1:3000).

- dephosphorylation of both RNAP IIO and GST-CTDo (GST-CTDo; substrates prepared by MAPK2/ERK2, 75 fmol each, 7 pmol RAP74): comparable efficiency
B2: GST-SCP1 214: GST fusion of the 214 aa spliced variant of SCP1, SEQ ID NO:8 (protein)
chain: MMGRPCLLTAGRPCLWRRMAPSLRQTPVQYLLPEAKAQDSDKICVVIDLDETLVHSSFKPVNNADFIIPVEIDGVVHQVYVLKRPHVDEFLQRMGELFECVLFTASLAKYADPVADLLDKWGAFRARLFRESCVFHRGNYVKDLSRLGRDLRRVLILDNSPASYVFHPDNAVPVASWFDNMSDTELHDLLPFFEQLSRVDDVYSVLRQPRPGS
modifications: left off: a dimerising Fc or GST

- concentration without dephosphorylation of rCTDo, relative to that required to dephosphorylate RNAP IIO (GST-CTDo): > 100 times
- dephosphorylation of Ser 5 versus Ser 2 phosphopeptide [1]: did not act on either phosphopeptide
- dephosphorylation of RNAP IIO prepared with Cdc2 kinase (RNAP IIO; 3.7 fmol RNAP IIO, 7 pmol RAP74): efficiently dephosphorylates
B3: FCP1: recombinant CTD phosphatase FCP1, class C phosphatase with BRCT domain (protein)
chain: MEVPAAGRVPAEGAPTAAVAEVRCPGPAPLRLLEWRVAAGAAVRIGSVLAVFEAAASAQSSGASQSRVASGGCVRPARPERRLRSERAGVVRELCAQPGQVVAPGAVLVRLEGCSHPVVMKGLCAECGQDLTQLQSKNGKQQVPLSTATVSMVHSVPELMVSSEQAEQLGREDQQRLHRNRKLVLMVDLDQTLIHTTEQHCQQMSNKGIFHFQLGRGEPMLHTRLRPHCKDFLEKIAKLYELHVFTFGSRLYAHTIAGFLDPEKKLFSHRILSRDECIDPFSKTGNLRNLFPCGDSMVCIIDDREDVWKFAPNLITVKKYVYFQGTGDMNAPPGSRESQTRKKVNHSRGTEVSEPSPPVRDPEGVTQAPGVEPSNGLEKPARELNGSEAATPRDSPRPGKPDERDIWPPAQAPTSSQELAGAPEPQGSCAQGGRVAPGQRPAQGATGTDLDFDLSSDSESSSESEGTKSSSSASDGESEGKRGRQKPKAAPEGAGALAQGSSLEPGRPAAPSLPGEAEPGAHAPDKEPELGGQEEGERDGLCGLGNGCADRKEAETESQNSELSGVTAGESLDQSMEEEEEEDTDEDDHLIYLEEILVRVHTDYYAKYDRYLNKEIEEAPDIRKIVPELKSKVLADVAIIFSGLHPTNFPIEKTREHYHATALGAKILTRLVLSPDAPDRATHLIAARAGTEKVLQAQECGHLHVVNPDWLWSCLERWDKVEEQLFPLRDDHTKAQRENSPAAFPDREGVPPTALFHPMPVLPKAQPGPEVRIYDSNTGKLIRTGARGPPAPSSSLPIRQEPSSFRAVPPPQPQMFGEELPDAQDGEQPGPSRRKRQPSMSETMPLYTLCKEDLESMDKEVDDILGEGSDDSDSEKRRPEEQEEEPQPRKPGTRRERTLGAPASSERSAAGGRGPRGHKRKLNEEDAASESSRESSNEDEGSSSEADEMAKALEAELNDLM

More lines, now with the values behind:

B1: SCP2: small CTD phosphatase-2, SEQ ID NO:4 (protein, listed as Homo sapiens)
chain: MEHGSIITQARREDALVLTKQGLVSKSSPKKPRGRNIFKALFCCFRAQHVGQSSSSTELAAYKEEANTIAKSDLLQCLQYQFYQIPGTCLLPEVTEEDQGRICVVIDLDETLVHSSFKPINNADFIVPIEIEGTTHQVYVLKRPYVDEFLRRMGELFECVLFTASLAKYADPVTDLLDRCGVFRARLFRESCVFHQGCYVKDLSRLGRDLRKTLILDNSPASYIFHPENAVPVQSWFDDMADTELLNLIPIFEELSGAEDVYTSLGAAAGPLACPASKRRPSQ
- CTD phosphatase activity when RNAP IIO is utilized as substrate (RNAP IIO; compared with SCP1): comparable CTD phosphatase activity

B4: REST/NRSF: RE-1 silencing transcription factor / Neuron-Restrictive Silencer Factor (protein, UniProt Q13127 1-1097, looked up)
RE1-silencing transcription …: MATQVMGQSSGGGGLFTSSGNIGMALPNDMYDLHDLSKAELAAPQLIMLANVALTGEVNGSCCDYLVGEERQMAELMPVGDNNFSDSEEGEGLEESADIKGEPHGLENMELRSLELSVVEPQPVFEASGAPDIYSSNKDLPPETPGAEDKGKSSKTKPFRCKPCQYEAESEEQFVHHIRVHSAKKFFVEESAEKQAKARESGSSTAEEGDFSKGPIRCDRCGYNTNRYDHYTAHLKHHTRAGDNERVYKCIICTYTTVSEYHWRKHLRNHFPRKVYTCGKCNYFSDRKNNYVQHVRTHTGERPYKCELCPYSSSQKTHLTRHMRTHSGEKPFKCDQCSYVASNQHEVTRHARQVHNGPKPLNCPHCDYKTADRSNFKKHVELHVNPRQFNCPVCDYAASKKCNLQYHFKSKHPTCPNKTMDVSKVKLKKTKKREADLPDNITNEKTEIEQTKIKGDVAGKKNEKSVKAEKRDVSKEKKPSNNVSVIQVTTRTRKSVTEVKEMDVHTGSNSEKFSKTKKSKRKLEVDSHSLHGPVNDEESSTKKKKKVESKSKNNSQEVPKGDSKVEENKKQNTCMKKSTKKKTLKNKSSKKSSKPPQKEPVEKGSAQMDPPQMGPAPTEAVQKGPVQVEPPPPMEHAQMEGAQIRPAPDEPVQMEVVQEGPAQKELLPPVEPAQMVGAQIVLAHMELPPPMETAQTEVAQMGPAPMEPAQMEVAQVESAPMQVVQKEPVQMELSPPMEVVQKEPVQIELSPPMEVVQKEPVKIELSPPIEVVQKEPVQMELSPPMGVVQKEPAQREPPPPREPPLHMEPISKKPPLRKDKKEKSNMQSERARKEQVLIEVGLVPVKDSWLLKESVSTEDLSPPSPPLPKENLREEASGDQKLLNTGEGNKEAPLQKVGAEEADESLPGLAANINESTHISSSGQNLNTPEGETLNGKHQTDSIVCEMKMDTDQNTRENLTGINSTVEEPVSPMLPPSAVEEREAVSKTALASPPATMAANESQEIDEDEGIHSHEGSDLSDNMSEGSDDSGLHGARPVPQESSRKNAKEALAVKAAKGDFVCIFCDRSFRKGKDYSKHLNRHLVNVYYLEEAAQGQE
- effect on neuronal differentiation [2]: prevented neuronal differentiation
